Laboratory results from PMC6770826, “HDX and Native Mass Spectrometry Reveals the Different Structural Basis for Interaction of the Staphylococcal Pathogenicity Island Repressor Stl with Dimeric and Trimeric Phage dUTPases” (Biomolecules, 2019).

B1: φNM1 phage dUTPase (enzyme)
chain: TNTLTIDQLQELLQIQKEFDDRIPTLNLRDSKIAYVVEFFEWFNTLETFKNWKKKPGKPLDVQLDELADMLAFGLSIANQVGVSSEEIKEAIESSFKDTEFHKMFNFKDKEFAQDAVVSTPQIIFKEFYPDQQAIVIVIDIAYNLYSIDQLIDAYKKKMKRNHERQDGTADAGKGYV
notes: dUTPase of Staphylococcus aureus phage φNM1, Uniprot ID A0EWK2, residues 2-178; monomer mass 20976 Da printed; also called DUTφNM1; homodimeric φNM1 dUTPase; source: E. coli BL21 Rosetta (DE3), purified (glutathione-agarose, on-column thrombin cleavage); not shown: GST, N-terminal, cleaved

What was measured:
[1] = target: φNM1 phage dUTPase (Staphylococcus aureus phage φNM1) (UniProt A0EWK2)
[2] = target: φNM1 phage dUTPase (Staphylococcus aureus phage φNM1) (UniProt A0EWK2); test: native MS; electrospray QTOF, positive ion mode; proteins at 40 μM in 5 mM NH4HCO3 pH 8.0
[3] = target: φNM1 phage dUTPase (Staphylococcus aureus phage φNM1) (UniProt A0EWK2); test: cross-linking; disuccinimidyl suberate (DSS, 20 mM), 20 °C, 1 h; 20 μM each protein alone or 1:1 mixture (40 μM total); SDS-PAGE
[4] = target: Stl repressor protein of S. aureus pathogenicity island SaPIbov1 (Staphylococcus aureus (pathogenicity island SaPIbov1)); test: as above
[5] = target: φNM1 phage dUTPase (Staphylococcus aureus phage φNM1) (UniProt A0EWK2); test: enzyme inhibition (steady-state dUTPase activity); DUTφNM1 with Stl at 0-300 nM, pre-incubated 5 min; 293 K; 1 mM HEPES-HCl pH 7.5, 5 mM MgCl2, 150 mM KCl, phenol red; quadratic binding equation fitted; apparent
[6] = target: the molecule itself; test: cross-linking; disuccinimidyl suberate (DSS, 20 mM), 20 °C, 1 h; 20 μM each protein alone or 1:1 mixture (40 μM total); SDS-PAGE

| Molecule | maximal inhibition of the steady-state dUTPase activity of DUTφNM1 by Stl (0-300 nM) [1] | stoichiometry N (Stl per DUTφNM1) [2] | stoichiometry N (Stl per DUTφNM1) [3] | stoichiometry N [4] | Ki [5] | stoichiometry N [6] |
| --- | --- | --- | --- | --- | --- | --- |
| Stl repressor protein of S. aureus pathogenicity island SaPIbov1 (natural protein) | 40% | 1 | 1 | 2 | 34 nM | – |
| B1 | – | – | – | – | – | 2 |
